Consider seven substances from PMC11035067.

Experiment in all cases: SEC; gel filtration during purification, Superdex 200 increase 10/300 GL in gel-filtration buffer (Table S2), non-actinic dim green light; self-association (dimer)
A general note: In gel filtration, larger molecules generally elute earlier.

Assay [1] concerns the target Idiomarina species A28L phytochrome-activated diguanylate cyclase (IsPadC), wild type (Idiomarina sp. A28L).
For assay [2], the target named is IsPadC D199L (Idiomarina sp. A28L).
Assay [3] addresses IsPadC D199N (Idiomarina sp. A28L).
Assay [4] has as its target IsPadC G449E (Idiomarina sp. A28L).
Assay [5] deals with IsPadC H193L (Idiomarina sp. A28L).
Assay [6] concerns the target IsPadC H193Q (Idiomarina sp. A28L).
The target in assay [7] is IsPadC R467S (Idiomarina sp. A28L).

What is called stoichiometry N is a count of units in the complex or per binding partner. “Idiomarina species A28L phytochrome-activated diguanylate cyclase (IsPadC), wild type (enzyme)” returned a stoichiometry N in assay [1] of 2.
In assay [2], IsPadC D199L (enzyme) yielded a stoichiometry N of 2.
In assay [3], IsPadC D199N (enzyme) gave a stoichiometry N of 2.
In assay [4], IsPadC G449E (enzyme) displayed a stoichiometry N of 2.
Take IsPadC H193L (enzyme): the stoichiometry N in assay [5] was 2.
For IsPadC H193Q (enzyme), the stoichiometry N in assay [6] turned out to be 2.
Regarding IsPadC R467S (enzyme), the stoichiometry N in assay [7] was determined as 2.
